Two molecules from article PMC4513230 (2015) can be followed below.

The Kd is the concentration at which binding is half-saturated. Low readings indicate tighter binding, high ones weaker binding.

Series [1] has as its system 40S ribosomal subunit, Rps5-E144R;eIF1;eIF1A;eIF2 WT. Briefly: EMSA (native gel). The conditions noted are these: methionylated; T7 transcript; 30 mM Hepes-KOH pH 7.4, 100 mM KOAc, 3 mM Mg(OAc)2, 2 mM DTT, 26°C; 1 nM [35S]-Met-tRNAi, 200-250 nM eIF2, 1 uM eIF1 and eIF1A, 100 uM GDPNP (Kd assays), mRNA ….
For series [2], the system named is 40S ribosomal subunit, Rps5-R148E;eIF1;eIF1A;eIF2 WT. Briefly: EMSA (native gel). Particulars: methionylated; T7 transcript; 30 mM Hepes-KOH pH 7.4, 100 mM KOAc, 3 mM Mg(OAc)2, 2 mM DTT, 26°C; 1 nM [35S]-Met-tRNAi, 200-250 nM eIF2, 1 uM eIF1 and eIF1A, 100 uM GDPNP (Kd assays), mRNA …. Background: Mobility shift assays separate free from complexed probe on a gel.

The subject of series [3] is 40S ribosomal subunit, WT Rps5;eIF1;eIF1A;eIF2 WT. The series can be described thus: EMSA (native gel). Particulars: methionylated; T7 transcript; 30 mM Hepes-KOH pH 7.4, 100 mM KOAc, 3 mM Mg(OAc)2, 2 mM DTT, 26°C; 1 nM [35S]-Met-tRNAi, 200-250 nM eIF2, 1 uM eIF1 and eIF1A, 100 uM GDPNP (Kd assays), mRNA ….
Series [4] deals with 40S ribosomal subunit, Rps5-E144R;eIF1;eIF1A;eIF2 WT. Briefly: EMSA kinetics (Kd = koff/kon). The conditions noted are these: methionylated; T7 transcript; 30 mM Hepes-KOH pH 7.4, 100 mM KOAc, 3 mM Mg(OAc)2, 2 mM DTT, 26°C; 1 nM [35S]-Met-tRNAi, 200-250 nM eIF2, 1 uM eIF1 and eIF1A, 100 uM GDPNP (Kd assays), mRNA ….
The test system of series [5] is 40S ribosomal subunit, Rps5-R148E;eIF1;eIF1A;eIF2 WT. Briefly: EMSA kinetics (dissociation). The conditions noted are these: methionylated; T7 transcript; 30 mM Hepes-KOH pH 7.4, 100 mM KOAc, 3 mM Mg(OAc)2, 2 mM DTT, 26°C; 1 nM [35S]-Met-tRNAi, 200-250 nM eIF2, 1 uM eIF1 and eIF1A, 100 uM GDPNP (Kd assays), mRNA ….
Series [6] relates to 40S ribosomal subunit, WT Rps5;eIF1;eIF1A;eIF2 with eIF2beta-S264Y (SUI3-2). The series can be described thus: EMSA kinetics (dissociation). Particulars: methionylated; T7 transcript; 30 mM Hepes-KOH pH 7.4, 100 mM KOAc, 3 mM Mg(OAc)2, 2 mM DTT, 26°C; 1 nM [35S]-Met-tRNAi, 200-250 nM eIF2, 1 uM eIF1 and eIF1A, 100 uM GDPNP (Kd assays), mRNA ….
Series [7] has as its system 40S ribosomal subunit, Rps5-R148E;eIF1;eIF1A;eIF2 with eIF2beta-S264Y (SUI3-2). Briefly: EMSA kinetics (dissociation). Particulars: methionylated; T7 transcript; 30 mM Hepes-KOH pH 7.4, 100 mM KOAc, 3 mM Mg(OAc)2, 2 mM DTT, 26°C; 1 nM [35S]-Met-tRNAi, 200-250 nM eIF2, 1 uM eIF1 and eIF1A, 100 uM GDPNP (Kd assays), mRNA ….
In series [8] the target is 40S·eIF1·eIF1A complex assembled with Rps5-R148E mutant 40S subunits (yeast (S. cerevisiae), UniProt P26783 1-225; P32911 1-108; P38912 1-153, R148E).

Consider initiator Met-tRNAi, for which the Kd in series [1], in series [2] and in series [3] was under 1 nM in each case. Besides, the binding signal (fold lower affinity than WT 40S) in series [4] came out at 40. Besides, the binding signal (fold higher koff than WT 40S) turned out to be 2 in series [5] and 4 in series [7]. The binding signal (fold lower koff than with WT eIF2) in series [6] turned out to be 3.

B1: eIF2∙GTP∙Met-tRNAi ternary complex (TC), wild-type eIF2 (complex)
chain 1: MSTSHCRFYENKYPEIDDIVMVNVQQIAEMGAYVKLLEYDNIEGMILLSELSRRRIRSIQKLIRVGKNDVAVVLRVDKEKGYIDLSKRRVSSEDIIKCEEKYQKSKTVHSILRYCAEKFQIPLEELYKTIAWPLSRKFGHAYEAFKLSIIDETVWEGIEPPSKDVLDELKNYISKRLTPQAVKIRADVEVSCFSYEGIDAIKDALKSAEDMSTEQMQVKVKLVAAPLYVLTTQALDKQKGIEQLESAIEKITEVITKYGGVCNITMPPKAVTATEDAELQALLESKELDNRSDSEDDEDESDDE
chain 2: MSSDLAAELGFDPALKKKKKTKKVIPDDFDAAVNGKENGSGDDLFAGLKKKKKKSKSVSADAEAEKEPTDDIAEALGELSLKKKKKKTKDSSVDAFEKELAKAGLDNVDAESKEGTPSANSSIQQEVGLPYSELLSRFFNILRTNNPELAGDRSGPKFRIPPPVCLRDGKKTIFSNIQDIAEKLHRSPEHLIQYLFAELGTSGSVDGQKRLVIKGKFQSKQMENVLRRYILEYVTCKTCKSINTELKREQSNRLFFMVCKSCGSTRSVSSIKTGFQATVGKRRRM
chain 3: MSDLQDQEPSIIINGNLEPVGEPDIVEETEVVAQETQETQDADKPKKKVAFTGLEEDGETEEEKRKREFEEGGGLPEQPLNPDFSKLNPLSAEIINRQATINIGTIGHVAHGKSTVVRAISGVQTVRFKDELERNITIKLGYANAKIYKCQEPTCPEPDCYRSFKSDKEISPKCQRPGCPGRYKLVRHVSFVDCPGHDILMSTMLSGAAVMDAALLLIAGNESCPQPQTSEHLAAIEIMKLKHVIILQNKVDLMREESALEHQKSILKFIRGTIADGAPIVPISAQLKYNIDAVNEFIVKTIPVPPRDFMISPRLIVIRSFDVNKPGAEIEDLKGGVAGGSILNGVFKLGDEIEIRPGIVTKDDKGKIQCKPIFSNIVSLFAEQNDLKFAVPGGLIGVGTKVDPTLCRADRLVGQVVGAKGHLPNIYTDIEINYFLLRRLLGVKTDGQKQAKVRKLEPNEVLMVNIGSTATGARVVAVKADMARLQLTSPACTEINEKIALSRRIEKHWRLIGWATIKKGTTLEPIA
As for B1, the Kd in series [8] is 101 nM.
